Results from publication doi:10.1101/2025.04.22.649924.

Molecular target: ectodomain of APP^695
Assay: SPR

SORLA^WT ectodomain (soluble wildtype SORLA ectodomain, hexa-His-tagged) (from UniProt Q92673 82-2137) (domain or fragment)
SPR sensorgram peak (response units): 1750 RU

SORLA^N1358S ectodomain (soluble mutant SORLA ectodomain, hexa-His-tagged) (from UniProt Q92673 82-2137) (domain or fragment)
SPR sensorgram peak (response units): 1650 RU
